Laboratory results as given in FireProtDB (doi:10.1073/pnas.1507829112).
Where “and” joins values, the source holds several entries; their conditions need not be identical. Identical values can stand only once.

B1: L130R|G133D, Q6VS32 (parent)
chain: CSSGGGGVAADIGAGLADALTAPLDHKDKSLQSLTLDQSVRKNEKLKLAAQGAEKTYGNGDSLNTGKLKNDKVSRFDFIRQIEVDGQLITLESGEFQIYKQDHSAVVALQIEKINNPDKIDSLINQRSFLVSGLGGEHTAFNQLPSGKAEYHGKAFSSDDPNGRLHYSIDFTKKQGYGRIEHLKTPEQNVELASAELKADEKSHAVILGDTRYGGEEKGTYHLALFGDRAQEIAGSATVKIREKVHEIGIAGKQ

Variants of: B1
Settings: Neisseria meningitidis; pH 7; Thermal; DSC; PBS; whole UniProt chain shown

| Variant | unfolding enthalpy (calorimetric) |
| --- | --- |
| L130R G133D | 56.3 kcal/mol and 94 kcal/mol |
| G133D | 96.8 kcal/mol and 96.1 kcal/mol |
